Test results as given in the domain aggregation screens of Martell et al. (2025).

Assay: soluble fraction after stress (log2 fold change); higher = more stays soluble; pooled small domains, quantitative proteomics
Conditions: stress: pH 4
Method in brief: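 After pH 4 stress, pooled custom libraries of small protein domains were quantified with high-throughput quantitative proteomics. Aggregation propensity is taken from the fold change in each domain's soluble amount following the acid stress. The scale is log2, where higher values mean more stayed soluble.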

| Sequence | soluble fraction (log2) |
| --- | --- |
| HMFIPMTDAQRHLFANKLAKLPELSEYSRGTESYEDFAIRIADMLLEPPKFRMFYPLLEQLGF | -1.19 |
| HMEEDPVISQAQRQALFKLAHDHFGQEEGNKVILRLIGEHGLRSTTNMTASVYKTVTDALIQVIESMVEG | -0.444 |
| HMHGEAEFLDATAVVMEKLNPGGLVKIKGEIWQAVSKDGHTIQEGEKVRVFERQGITLLVGHF | -0.223 |
| HMSVTDDQLRVFTNKSGTKIKAKIVEVSDDKVKLIRDDNKKFIVPINSLSEEDQDYLRDWVSNEAVEP | -0.0786 |
| HMGPPAVGSKLQDARKAQQLSLDELSKRAGVSKSMLSEVERNQANPTVGVLWRLATALGISLTDLLG | -0.549 |
| HMTNELTEIFNSIRLTKKQKELLQSNYLSLRETYFLQGKTAFNLKFKNIAGLGKSTKKVLLEFFEESIE | -0.499 |
| HMPKTATIVIDLNYADAKEIVENLQTILAGETKDISVAPHPSANQIIASGDRWEVENISTIIKQLDR | -1.02 |
| HMDGDVAVKGGDGVLEVRLANAANVRVYNLAGRLMADYTGTELHMPLPKGVYMVVAGDNRTKVVV | -0.00794 |
| HMVEIPEFKITTFVNTDNEQIAEFENGFTDKKAEITFNNTKYVFKEKLPDQDGIRTYVYEELHE | -0.438 |
| HMRDSYTFEDIEKLKDSYLQDSEKALEKLISIYEDTNQSLAIRTAALDIITDSQDPTFKLALEKIIS | -0.751 |
| HMKSKNRLTKSYLDSIPGVGRKRKSILLRYFGSIDQIKRASSEDIANVPGIGKITSDLVYNYFNQ | -0.23 |
| HMRLGQLQSVEEPKFIEVHSGKQGDIGEQTIVEYEIDAKYATGDATINLKLLFRDGLFEIYNFNFSSEALL | -0.259 |
| HMAEKRTAIITTARADIRQKPEATAPLAFEAVKDVVLELTDKPADGWVRVKHRDGSTGYIRINQI | -0.132 |
| HMNDLDSLWDIWENLNERGIGDKSEEGQELRDAIREFIDTNELNVRVTRNKTNEDLLTDIEDALEVAKNS | -2.07 |
| HMATVTVPNLKGMTPSGAESALAELNLKGAVGDSVESNDVENGKVASQDQAAGSDAKEGDTITYHLSS | -0.103 |
| HMSKMVEMSQEKSREKVARVKIEIQKMLDRKERVTVSGLERATGFSNSFFYRNEEVNQAVKEAQLKQ | 0.0693 |
| HMTNTDALINRAAKVVEEINPDKNTGRVSIDGDLWRAKSSSGELIEQNKQVIVISIESTIVTVKI | -0.317 |
| HMEVPFRNAAIFKTRSGDYAIRASYDGVDLGIKPIEKSTARTYFQLTDVKDKESFLNMTARNQYESEIAGI | 0.153 |
| HMRVPTVIGMDEGTAKATLANASLKSNIVYESDETKENGKVLSQGIEQNKEVKAGTTVEIKVNKIE | 0.22 |
| HMVKLQATPSQRKTLDELYVQLKKLEPTAKEDLSLLRRLENSHLVSKQEAQGLISKAIGRVGALAVEQQP | 0.0541 |
| HMPPITIVPNDNGVPIIRSQTPEISTAVNVELKAAGINTHTIDGTSIRVPKAQAQVAQQIVSRVNTRFT | 0.266 |
| HMDTNAIIGLRIKNLRTEKKYTLKYLSENTGLSIGFLSQLERGMTSIAIDSLDKISKVLDVELSSFFT | -0.14 |
| HMKRMSKKQLSAVIEKYFSSQPGVTLTLKDIFRNLHLDTHPLKMIALDILEEMSWDDVIMKVSDTSYALNT | 2.81e-05 |
| HMGYDDLEPFDANGRLRWSDQELVLAFGRHRGATLRTLELNDPSYLRWLLSGNGPLEQQDIQRLEQILES | -1.44 |
| HMKTDLQIQQDVMAELKWEPKVNAAHIGVEVKHGVVTLSGHVDSFAEKWNAEQAAKRVAGVKFIAIELDV | -0.0349 |
| HMISRKIKELRLSHDLTQKDLADYLNLTPKMVSFYELGQRVPPSDIILKLAEKFHVSTDYLLGNEDRP | -0.126 |

| Sequence | soluble fraction (log2) |
| --- | --- |
| HMGMVKLNEEYLEKVKKHRKELHITQLQISKKLGWSLSRYQRFESGFYKEIEDDAPKKIKEEFGIDYSLL | -0.231 |
| HMTQDFEPGGQVFSRGEWLTIIRVNKSNGAVSSVTTPNYSFLGYSGTMKVTPDRITDYKAPSAEEAAVAS | -0.0277 |
| HMVQDSEWWRNYQSAHDYFIQNGHLNVLRSDKKNTKLYNWIVGQRSSRWNSQGRINLLNSIGFIWDT | -1.65 |
| HMVSINETAFIQIKNSSATEIKEKITALKLDELKNVTITADIRTNKLIVVGPKATINKIQELVIELDTES | -0.49 |
| HMQETPAMLAMKELPTEDEQRIYMMLQEDYDSVLLVKTIRNAFSQNPQLTRQQLLPIILTWLMT | -1.08 |
| HMLERPLFTPEQYGRFRGKEARIRLSNPVEGRKTLTGSIVEATEERIVVFVEEEEREVTVPFQWIKSGNL | -0.523 |
| HMQGEVPYSQFLTEVDRGDVQSVVIEGNNISGFYKNSSTAFTVVAPDDPKLVERLMEQGVEVKARPV | ≥ 0.43 |
| HMASPKEALWRSLAEEPDTWWDNRERKSQPGANPRSPDFKHKESGEALWIESRDTPTWVLETL | -1.5 |
| HMNSNLSLTSYEEKIFFLLEKEKNLDELILESSFKAGEILSILMDLEIKHAIVSIPGGKYRRK | -1.32 |
| HMNGAAAEQARKQLMTALKASEFIAQDKLDEWLDALALPQEKRSAIIDAVDELDYEEAISELEN | -0.2 |
| HMDYNYLVFVTNTGPRSIAVEDLEMTVSDGKLVVSSGADGETFDLSTLTKMYFSDAAVVSINDV | -1.14 |
| HMNRTKYYDFEGHPAKVVRLTLPVYLNKIGDEVVVYDSQKFAREASPISESQYNRMVAEIFQP | -0.0162 |
| HMKHFNDEELDGFAGLKSDDYNEEQVELFRNIFEELHPDEIIEWTESLRRRGIEIPSSLKDEVVMMIN | -1.69 |
| HMTSNIIIVPNVVGMTKEQATAALAAAGLNIKLSGVETTDTAAVAVKQKPSANTKVEEGSVVTVEFDLK | -1.35 |
| HMPLLSEWDAALEELWAKLGDVPMDPETERMDAPFLGFPAGTPREDIWHWFDERHSKGVAHLLYG | -1.78 |
| HMKHRTQMDIQQLPAIEGKGGFEYKISIIHLSTRIKYSEIHDNYNTTTIAKVYENAIERLPPF | -1.13 |
| HMDSAMMDLVMRVQLALFTKGYDVGIIDGKIGPKTRAQIKRYQSDNRLSSTGTLTTSLLTSLGIQ | 0.00457 |
| HMKINVQETEVYRYLLERADRLYSMILGEERENLMERTRFFEKEVAKASLPHLPKLYDEFSIYLDRLERG | -0.555 |
| HMEEGKVKRMAMDMVDAFYDKVSAMVDDNNDLGRSVVDAWDDEEENPPEYMLDDETRAILVNAGKIEPE | 0.0884 |
| HMSSDLSNVVKIIDTLKHKKGALLPILHQIQREIGYIPLKTIDTIAKKLQQTPAEIHGVISFYHQFRTS | 0.22 |
| HMAPSPEGAAILRESVESVARDQVDRVALTMTARGYTTAEIAAALMVDRSTISRRLYAMRDRYHAQQDNAQ | -0.666 |
| HMNDGEIAAPVSGTLQSFKVEDGQTVSEGDLVAVMEAMKMETQILATKGGTIRLLVKEGDYLQAGHALMTI | -1.07 |
| HMPPPVERAIRKLGHDLSLARRRRRISQDSMAQRMGASVSTVRRIEKGDPRIPIHFIARAMMILGDLKAL | -0.105 |
| HMNADKEALIAAAYRNSLIENFGTENVERYEERFNKWADKHDRQGMPMYPTIEKWMNEDNIA | -0.209 |
| HMVIREVNDNPVSAEELRLGDRVKVLSLGQNGEIVTLPDEKGELTVQVGILKAKVNLDDIMLI | 0.0234 |
| HMKEFSFNGGKVIMNYEADRIQIKHDSRPNQEVITLMKRNGFKWSPTNQAWQRQITGNAIYVTKNLLKS | -0.0347 |

| Sequence | soluble fraction (log2) |
| --- | --- |
| HMAKINFTSDAIDIGMVTRNDIEMLSFYQNVLGLTKDMEIPFPGLGVVNKLSFGSGFIKILVL | -0.272 |
| HMSNEYLMPNLIGMSWDEAKSKYSQYMTLVPEQEWSEVTKDQIFDQEYPEGRKVKIGTEVTVKVSMGI | 0.228 |
| HMTNVLSEQESKLLERMNKAGLNAEITVKKAAQILNLSESAARNVLNRLVGKGYLTVDTSRLPFLFQR | 0.122 |
| HMRGDEDTGVWPTPMKRAYIDSLLKGYPTGVTMIVKPPGASHTTKWMILDGANRARALRDFMNDEFMI | -0.155 |
| HMSDYYEVLGVTRQADAEEIKRAYRRKARQLHPDVAGPGHEEEFKEVTVAYEVLSDPEKRQAYDLGGQDAL | 0.0614 |
| HMVVRRLPFGFSKRFGVLVVPGTSNPVELLYREDASMQSLLEARRVVAQPVAFKKTDVESFNAQLARAHEN | -0.122 |
| HMPKAMAIMSEIAGTVHIDDTKKSRHVEVTGVDDNGAPVTKSYLIPFGHRLKVMEGDVLVKGALLT | -0.0288 |
| HMGRQVTVPNVTGMLVEEARAAISEAELWVDSPRAVQGEVTRQEPARGERLSPGQEVRIYTES | -0.568 |
| HMREFQVMKQELQEMVHQRLDMSTELSDEAIGDVIDEVIMEKSRNMYISSVTKLTLRQELFNAIR | -2.14 |
| HMGMTAPIPGVVLKVSVLPGQKVERGDELLTIEAMKMFNVMRSPSSGTIATVHIKDGDRVVQGQPLVTFA | 0.113 |
| HMAPQQARAAKTRVKLLDAAATVVRRDGIQAMTLARVAEEAGVSKGGLLHHFGSKEELVTGMLEQ | -0.402 |
| HMDVQPHIYLRKLDQFWPADLHSLILYTLDGRRLWSADSGNIPALPHRASSLVILEATWDNGQRTRRKQFL | -0.116 |
| HMPDLSEDEEKIVSLLRDNNDLNVNIIVMRTQLPSATVTSSLFSLELKGVVRMYAGGMYHLM | 0.0385 |
| HMEAPMPIFWRPQFRIGHDDIDADHRYLILLINTVELVLRFPDDPRNVELALTELRRYAEDHFEREER | 0.0123 |
| HMSNEVSYSDFVRSVESDEVNAVTLDGEQIRFVGNDGQTYSVIKPADAQITQLLIDNNVTVRAEQQ | -0.0566 |
| HMNTNDFTIGTRVRTTKKGNGSSDGTSNTARSGIEGTITRIIPEAKYPYLVSTTVPMGWYKKDALEK | 0.157 |
| HMETIHEMVNRLSSEGFIKNEDGIWYLRDRRGDGTKWLKNPFFESTGEKDAFALIDHLKVNDELLSKLRK | -0.433 |
| HMSVTIDAGGKVYLQESEIADDQLVPRLVAISNNGYDKPIYLRADKTVGYGRVAEVMSLLNAAGFTKLVLV | -0.244 |
| HMNKRKQRINDLMDLIREQPALSIKNLAEMLNVSEMTIRRDMAYLKSNNLLNRAHGMNFLNS | 0.132 |
| HMGGASVTDQQIRDFVSAHTDDPMAIYKAAVANGISSARLAQVTGISIADIEAFVRKNNLPSF | -0.206 |
| HMDGKTALQEIVASSGWSPPEYKVSESGPDHDKDFVAYAIVNGVAYPEGHGKSKREAEQVAARIAFEALSK | -0.00195 |
| HMSQDPLETYYPQWSAAVKQSNPDAEIIRDTDGKYYVEGMTKNRVAVIYENPHLVRLVNATTNVHVE | 0.238 |
| HMEISPGDVFKQLPGIGDDLSRRVVESLGIQSLEELESAAHDGRLEQVEGFGERRVQMVRAVLTGMLS | -1.04 |
| HMAKPVNISAEPYHYDPTRFRVTFELPRLSDQPRKRIRKVAPAGLDREQALAWAKRLEREVLHELLR | -0.144 |
